According to the Human Domainome abundance scans (Beltran et al. 2025):
± gives the uncertainty stated by the source.

B1: Far upstream element-binding protein 2, residues 142 to 214; numbered along this chain, Q92945 (parent)
chain: RTSMTEEYRVPDGMVGLIIGRGGEQINKIQQDSGCKVQISPDSGGLPERSVSLTGAPESVQKAKMMLDDIVSR

Variants of: B1
Test: abundance fitness (aPCA) (normalised: wild type 0, dead -1); higher = more abundant; growth selection in yeast, the domain comes from the species named
Details: Homo sapiens

In order of rising abundance fitness:
1. RTSMTEEYRVPDGMVGLIIGRGGEQINKIQQDSGCKVQISPDSGGLPERSRSLTGAPESVQKAKMMLDDIVSR [V51R]  -0.944 ± 0.054
2. RTSMTEEYRVPDGMVGLIIGRGGEQINKIQQDNGCKVQISPDSGGLPERSVSLTGAPESVQKAKMMLDDIVSR [S33N]  -0.897 ± 0.15
3. RTSMTEEYRVPDGMVGLIIGRGGEQINKNQQDSGCKVQISPDSGGLPERSVSLTGAPESVQKAKMMLDDIVSR [I29N]  -0.869 ± 0.14
4. RTSMTEEYRVPDGMVGLIIGRGGEQINKIQQDGGCKVQISPDSGGLPERSVSLTGAPESVQKAKMMLDDIVSR [S33G]  -0.861 ± 0.049
5. RTSMTEEYRVPDGMVGLIIGRGGEQINKIQQDSGCKVQISPDSGGLPERSVSLTGAPESDQKAKMMLDDIVSR [V60D]  -0.789 ± 0.089
6. RTSMTEEYRVPDGMVGLIIGRGGEQINKIQQDSGCKVQISPDSGGLPERSVSLTGAPESEQKAKMMLDDIVSR [V60E]  -0.773 ± 0.068
7. RTSATEEYRVPDGMVGLIIGRGGEQINKIQQDSGCKVQISPDSGGLPERSVSLTGAPESVQKAKMMLDDIVSR [M4A]  -0.716 ± 0.052
8. RTSMTEEYRVPDGMVGLIIGRGGEQINKIQQDSGCKVQISPDSGGLPERSVSLTGAPESVQKPKMMLDDIVSR [A63P]  -0.648 ± 0.066
9. RTSMTEEYRVPDGMVGLIIGRGGEQINKIQQDSGCKVQISPDSGGLPERSVSTTGAPESVQKAKMMLDDIVSR [L53T]  -0.648 ± 0.062
10. RTSMTEEYRVPDGMVGLIIGRGGEQINKIQQDIGCKVQISPDSGGLPERSVSLTGAPESVQKAKMMLDDIVSR [S33I]  -0.452 ± 0.13
11. RTSMTEEYRVPDGMVGLIIGRGYEQINKIQQDSGCKVQISPDSGGLPERSVSLTGAPESVQKAKMMLDDIVSR [G23Y]  -0.393 ± 0.2
12. RTSMTEEYRVPDGMVGLIIGRGGEQINKIQQDSGCKVQISPDSGGLPERSVSLTGAPCSVQKAKMMLDDIVSR [E58C]  -0.305 ± 0.08
13. RTSMEEEYRVPDGMVGLIIGRGGEQINKIQQDSGCKVQISPDSGGLPERSVSLTGAPESVQKAKMMLDDIVSR [T5E]  -0.304 ± 0.046
14. RTSMTEEYRVPDGMVGLIIGRGGEQINKIFQDSGCKVQISPDSGGLPERSVSLTGAPESVQKAKMMLDDIVSR [Q30F]  -0.252 ± 0.11
15. RTSMTEEYRVPDGMVGLIIGRGGEQINKIGQDSGCKVQISPDSGGLPERSVSLTGAPESVQKAKMMLDDIVSR [Q30G]  -0.24 ± 0.038
16. RTSMTEEYRVPDGMVGLIIGRGGEQINKIQQDSGCKVQISPDSGGLPERSVSLTGAPEKVQKAKMMLDDIVSR [S59K]  -0.216 ± 0.068
17. RTSMTEEYRVPDGMVGLIIGRGGGQINKIQQDSGCKVQISPDSGGLPERSVSLTGAPESVQKAKMMLDDIVSR [E24G]  -0.215 ± 0.039
18. RTSMTEEYRVPDGMVGLIIGRGGEQINKIQQDSGCKVQISPDSGGLPERSVSLTGAPEMVQKAKMMLDDIVSR [S59M]  -0.206 ± 0.054
19. RTSMTEEYRVPDGMVGLIIGRGGEQINKIQQDSGCKVQISPDYGGLPERSVSLTGAPESVQKAKMMLDDIVSR [S43Y]  -0.189 ± 0.081
20. RTSMTDEYRVPDGMVGLIIGRGGEQINKIQQDSGCKVQISPDSGGLPERSVSLTGAPESVQKAKMMLDDIVSR [E6D]  -0.171 ± 0.053
21. RTSMTEEYRVPDGMVGLIGGRGGEQINKIQQDSGCKVQISPDSGGLPERSVSLTGAPESVQKAKMMLDDIVSR [I19G]  -0.146 ± 0.054
22. RTSMTEEYRVPDGMVGVIIGRGGEQINKIQQDSGCKVQISPDSGGLPERSVSLTGAPESVQKAKMMLDDIVSR [L17V]  -0.113 ± 0.048
23. RTSVTEEYRVPDGMVGLIIGRGGEQINKIQQDSGCKVQISPDSGGLPERSVSLTGAPESVQKAKMMLDDIVSR [M4V]  -0.069 ± 0.044
24. RTSMTEEYRVPDGMVGLIIGRGGEQINKIEQDSGCKVQISPDSGGLPERSVSLTGAPESVQKAKMMLDDIVSR [Q30E]  -0.067 ± 0.053
25. RTSMTEEYRVPDGMVGLIIGRGGEQINKIQQDSGCKVQISPDSGGLPERSVSLTGAPESVQKAKMMLDDIVTR [S72T]  -0.042 ± 0.052
26. RTSMTEEYRVPDGMVGQIIGRGGEQINKIQQDSGCKVQISPDSGGLPERSVSLTGAPESVQKAKMMLDDIVSR [L17Q]  -0.028 ± 0.059
27. RTSMTEEYRIPDGMVGLIIGRGGEQINKIQQDSGCKVQISPDSGGLPERSVSLTGAPESVQKAKMMLDDIVSR [V10I]  -0.02 ± 0.062
28. RTSMTEEYRVPDGMVGLIIGRGGEQINKIQQDSGCKVQISPDSGGLPERSVSLTGAPESVQKAKMMLDDIVSE [R73E]  -0.013 ± 0.055
29. RTSMTEEYRVPDGMVGLIIGRGGEQINKIQQDSGCKVQISPDTGGLPERSVSLTGAPESVQKAKMMLDDIVSR [S43T]  -0.012 ± 0.048
30. RTSMTEEYRVPDGMVGLIIGRGGEQINKIQQDSGCKVQISPDSGGLPERSVSLTGAPESVQKAKMMLDEIVSR [D69E]  -0.002 ± 0.052
31. RTSMTEEYRVPDGMVGLIIGRGGEQINKIQQDSGCKVQISPDSGGLPERSVSLTGAPEDVQKAKMMLDDIVSR [S59D]  0.003 ± 0.06
32. RTSMTEEYRVPDGMVGLIIGRGGEQINKIQQDSGCKVQISPDSGGLAERSVSLTGAPESVQKAKMMLDDIVSR [P47A]  0.02 ± 0.048
33. RTSFTEEYRVPDGMVGLIIGRGGEQINKIQQDSGCKVQISPDSGGLPERSVSLTGAPESVQKAKMMLDDIVSR [M4F]  0.02 ± 0.087
34. RTSMTEEYRVPDGMVGLIIGRGGEQINKIQQDSGCKVQIAPDSGGLPERSVSLTGAPESVQKAKMMLDDIVSR [S40A]  0.027 ± 0.042
35. RTSMTEEYRVPDGMVGLIIGRGGEQINKIQQDSGCKVQISPDSGGLPERSVTLTGAPESVQKAKMMLDDIVSR [S52T]  0.068 ± 0.049
36. RTSMTLEYRVPDGMVGLIIGRGGEQINKIQQDSGCKVQISPDSGGLPERSVSLTGAPESVQKAKMMLDDIVSR [E6L]  0.07 ± 0.042
37. RTSMTEEYHVPDGMVGLIIGRGGEQINKIQQDSGCKVQISPDSGGLPERSVSLTGAPESVQKAKMMLDDIVSR [R9H]  0.135 ± 0.069
